Test results from patent publication US20240132578A1.

Assays:
Experiment in all cases: cell-based or functional assay
[1] = target: HIV-1 Env of isolate 92RW008 (clade A pseudovirus) (HIV-1)
[2] = target: HIV-1 Env of isolate MGRM-D-016 (clade D pseudovirus) (HIV-1)
[3] = target: HIV-1 MGRM-AG-008 Env (pseudovirus) (HIV-1)
[4] = target: HIV-1 Env of isolate MGRM-A-003 (clade A pseudovirus) (HIV-1)
[5] = target: HIV-1 Env of pseudovirus MGRM-G-028 (HIV-1)
[6] = target: HIV-1 MGRM-AG-006 Env (pseudovirus) (HIV-1)
[7] = target: HIV-1 APV-6 envelope (Env) on pseudovirus (HIV-1)
[8] = target: HIV-1 Env of isolate MGRM-A-013 (clade A pseudovirus) (HIV-1)
[9] = target: HIV-1 Env of isolate MGRM-D-028 (clade D pseudovirus) (HIV-1)
[10] = target: HIV-1 Env of isolate MGRM-D-002 (clade D pseudovirus) (HIV-1)
[11] = target: HIV-1 VLGCA1 envelope glycoprotein (Env) on pseudovirus (HIV-1 (clade A))
[12] = target: HIV-1 envelope glycoprotein (Env) of isolate MGRM-C-014 (HIV-1)
[13] = target: HIV-1 Env of isolate MGRM-D-013 (clade D pseudovirus) (HIV-1)
[14] = target: HIV-1 Env of isolate MGRM-AE-007 (pseudovirus) (HIV-1)
[15] = target: HIV-1 envelope glycoprotein (Env) of isolate QH0692.42, on pseudovirus (HIV-1)
[16] = target: HIV-1 Env of isolate MGRM-F1-022 (pseudovirus) (HIV-1)
HIV-1 CMU02 Env (HIV-1) = target: HIV-1 CMU02 Env (HIV-1)
[17] = target: HIV-1 Env of isolate MGRM-F1-020 (pseudovirus) (HIV-1)
[18] = target: HIV-1 envelope glycoprotein (Env) of isolate VLGCA1, subtype A (HIV-1)
[19] = target: HIV-1 envelope glycoprotein (Env) of isolate 92RW008, subtype A (HIV-1)
[20] = target: HIV-1 envelope glycoprotein (Env) of isolate APV_13, on pseudovirus (HIV-1)
[21] = target: HIV-1 envelope glycoprotein (Env) of isolate PVO.4, on pseudovirus (HIV-1)
[22] = target: HIV-1 envelope glycoprotein (Env) of isolate MGRM-AE-001, subtype AE (HIV-1)
[23] = target: HIV-1 envelope glycoprotein (Env) of isolate SC422661.8, on pseudovirus (HIV-1)

Chain of 1443_C16 (PG16) (TCN-116) (antibody) (VH): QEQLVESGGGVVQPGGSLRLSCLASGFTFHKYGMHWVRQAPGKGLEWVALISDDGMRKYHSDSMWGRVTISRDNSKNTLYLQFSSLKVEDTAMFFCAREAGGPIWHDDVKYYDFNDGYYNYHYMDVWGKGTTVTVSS
Chain of 1443_C16 (PG16) (TCN-116) (antibody) (VL): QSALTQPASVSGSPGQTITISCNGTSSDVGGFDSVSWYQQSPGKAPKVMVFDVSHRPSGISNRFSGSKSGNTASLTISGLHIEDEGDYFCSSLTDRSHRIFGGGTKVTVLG

Substance	IC50 (µg/ml), pseudovirus neutralization [1]	IC50, pseudovirus neutralization [2]	IC50 (µg/ml), pseudovirus neutralization [3]	IC50 (µg/ml), pseudovirus neutralization [4]	IC50 (µg/ml), pseudovirus neutralization [5]	IC50 (µg/ml), pseudovirus neutralization [6]	neutralization IC50 [7]	IC50 (µg/ml), pseudovirus neutralization [8]	IC50, pseudovirus neutralization [9]	IC50, pseudovirus neutralization [10]	IC50 (µg/ml), pseudovirus neutralization [11]	IC50 (µg/ml), pseudovirus neutralization [12]	IC50, pseudovirus neutralization [13]	further results
2F5 (antibody)	10.4 µg/mL	9.85 µg/mL	0.54 µg/mL	7.37 µg/mL	2.24 µg/mL	0.85 µg/mL	0.1 µg/mL	0.66 µg/mL	> 50 µg/mL	24.6 µg/mL	3.9 µg/mL	> 50 µg/mL	2.12 µg/mL	–
2G12 (antibody)	22.5 µg/mL	> 50 µg/mL	> 50 µg/mL	> 50 µg/mL	28.2 µg/mL	3.92 µg/mL	5.3 µg/mL	> 50 µg/mL	> 50 µg/mL	> 50 µg/mL	> 50 µg/mL	> 50 µg/mL	> 50 µg/mL	–
4E10 (antibody)	14.5 µg/mL	15.4 µg/mL	1.48 µg/mL	5.94 µg/mL	6.32 µg/mL	1.76 µg/mL	0.4 µg/mL	1.46 µg/mL	1.28 µg/mL	9.44 µg/mL	4.58 µg/mL	2.48 µg/mL	5.38 µg/mL	–
1443_C16 (PG16) (TCN-116) (antibody)	0.002 µg/mL	0.02 µg/mL	0.002 µg/mL	2.65 µg/mL	3.09 µg/mL	> 50 µg/mL	0.08 µg/mL	0.09 µg/mL	> 50 µg/mL	0.01 µg/mL	0.18 µg/mL	> 50 µg/mL	0.11 µg/mL	–
1495_C14 (PGC14) (antibody)	37 µg/mL	> 50 µg/mL	45 µg/mL	> 50 µg/mL	> 50 µg/mL	> 50 µg/mL	7.41 µg/mL	> 50 µg/mL	> 50 µg/mL	29 µg/mL	> 50 µg/mL	> 50 µg/mL	> 50 µg/mL	–
1496_C09 (PG9) (TCN-109) (antibody)	0.01 µg/mL	0.1 µg/mL	–	0.65 µg/mL	–	–	0.0869 µg/mL	0.16 µg/mL	4.39 µg/mL	0.027 µg/mL	0.07 µg/mL	0.64 µg/mL	0.06 µg/mL	IC50 (µg/mL), pseudovirus neutralization [14]: 0.18 µg/mL
4838_L06 (PGT-121) (antibody)	–	–	–	–	–	–	–	–	–	–	–	–	–	IC50, pseudovirus neutralization [15]: 0.823 µg/mL; IC50 (µg/mL), pseudovirus neutralization [16]: 0.104 µg/mL; IC50, pseudovirus neutralization (HIV-1 CMU02 Env (HIV-1)): > 10 µg/mL; IC50 (µg/mL), pseudovirus neutralization [17]: 0.167 µg/mL; IC50, pseudovirus neutralization [18]: > 50 µg/mL; IC50, pseudovirus neutralization [19]: 3 ng/mL; IC50, pseudovirus neutralization [20]: 0.251 µg/mL; IC50, pseudovirus neutralization [21]: 0.137 µg/mL; IC50, pseudovirus neutralization [22]: > 50 µg/mL; IC50, pseudovirus neutralization [23]: 0.098 µg/mL
